Source: patent US12364743B2, “Microbiota sequence variants of tumor-related antigenic epitopes” (ENTEROME S.A., priority 2016, dated 2025)

Legend:
HLA-A*0201 = molecular target: T1, HLA-A*0201 (Homo sapiens, UniProt P04439, D140Y/D185E/D98H/E176V/E277Q/G131W/G231S/I119V/I121R/I166T/I218V/L300P/L318F/N151K/N90K/P208A/P217A/Q86G/Q94H/R138H/R169H/T345S); test: Affinity of peptides to HLA-A*0201 on T2 cells (FACS, anti-HLA-A2); assay type: binding; details: for binding affinity to HLA-A*0201 compared among peptides: Example 5; for concentration inducing 20% of expression of the HLA-A*0201: 100% = reference peptide HIV pol 589-597 at 100 μM; for Mean fluorescence intensity: 16 hours
T1 construct: the human tumoral cell T2 which expresses the HLA-A*0201 molecule, but which is TAP 1/2 negative; endogenous in cells; host or cells: T2 cells (human, TAP 1/2 negative)
Source text: The experimental protocol is similar to the one that was validated for peptides presented by the HLA-A*0201 (Tourdot et al., A general strategy to enhance immunogenicity of low-affinity HLA-A2.1-associated peptides: implication in the identification of cryptic tumor epitopes. Eur J Immunol. 2000 December; […]:3411-21). Affinity measurement of the peptides is achieved with the human tumoral cell T2 which expresses the HLA-A*0201 molecule, but which is TAP 1/2 negative and incapable of presenting endogenous peptides.
T2 cells (2.10^5 cells per well) were incubated with decreasing concentrations of peptides from 100 μM to 0.1 μM in a AIMV medium supplemented with 100 ng/μl of human β2m at 37° C. for 16 hours. Cells were then washed two times and marked with the anti-HLA-A2 antibody coupled to PE (clone BB7.2, BD Pharmagen).
The analysis was performed by FACS (Guava Easy Cyte). […] A2. Solubilisation of Peptides
The experimental protocol, materials and methods correspond to those outlined in Example 4, with the only difference that the above mentioned antigenic peptides were used.

β/A2/DR3 mice = test: ELISPOT-IFNγ on splenocytes of vaccinated mice; assay type: in vivo, mouse; details: for percentage of ConA-induced response (mean+/−SEM): ELISPOT-IFNγ, vaccination 100 μg s.c. d0 and d14, spleen d21
Source text: Briefly, 14 β/A2/DR3 mice were assigned randomly (based on mouse sex and age) to two experimental groups, each immunized with a specific vaccination peptide (vacc-pAg) combined to a common helper peptide (h-pAg) (as outlined in Table 7 below). The vacc-pAg were compared in couples (group 1 vs. group 2). Thereby, both native and optimized versions of a single peptide were compared in each wave.
The animals were immunized on day o (do) with a prime injection, and on d14 with a boost injection. Each mouse was injected s.c. at tail base with 100 μL of an oil-based emulsion that contained: • 100 μg of vacc-pAg (25 μL of 4 mg/mL stock per mouse); • 150 μg of h-pAg (15 μL of 10 mg/mL stock per mouse); • 10 μL of PBS to reach a total volume of 50 μL (per mouse); • Incomplete Freund's Adjuvant (IFA) added at 1:1 (v:v) ratio (50 μL per mouse).
Seven days after the boost injection (i.e. on d21), the animals were euthanized and the spleen was harvested. Splenocytes were prepared by mechanical disruption of the organ followed by 70 μm-filtering and Ficoll density gradient purification.
The splenocytes were immediately used in an ELISPOT-IFNγ assay (Table 8). Experimental conditions were repeated in quadruplets, using 2*10^5 total splenocytes per well, and were cultured in presence of vacc-pAg (10 μM), Concanavalin A (ConA, 2.5 μg/mL) or medium-only to assess for their capacity to secrete IFNγ. The commercial ELISPOT-IFNγ kit (Diaclone Kit Mujrine IFNγ ELISpot) was used following the manufacturer's instructions, and the assay was performed after about 16 h of incubation.
Spots were counted on a Grand ImmunoSpot® S6 Ultimate UV Image Analyzer interfaced to the ImmunoSpot 5.4 software (CTL-Europe). Data plotting and statistical analysis were performed with the Prism-5 software (GraphPad Software Inc.).
The data were then normalized as a number of specific spots (the average counts obtained in the ‘medium only’ condition being subtracted) per 10^6 total T cells.
The individual average values (obtained from the quadruplicates) were next used to plot the group average values (see FIG. 3A). As the functional capacity of T cells might vary from individual to individual, the data were also expressed as the percentage of the ConA response per individual (see FIG. 3B).

U87-MG cells = test: In vitro cytotoxicity of CD3+ T cells from immunized mice against U87 cells; assay type: cell-based; details: CD3+ T cells of mice immunized with the peptide; 72 hours co-culture; DAPI/annexin V cytometry
Method: Briefly, CD8 T cells from mice immunized with IL13RA2-H or […] were used. These cells were obtained after sorting of splenocyte from immunized mice and were placed on top of U87 cells (tumor cells expressing IL13RA2).
In more detail, CD3^+ T cells were purified from splenocytes of HHD mice immunized with IL13RA2-H ([…], SEQ ID NO: 1) or IL13RA2-B ([…], SEQ ID NO: 18). To this end, B6 β2 m^ko HHD/DR3 mice were injected s.c. at tail base with 100 μL of an oil-based emulsion containing vaccination peptide plus helper peptide plus CFA (complete Freund's adjuvant), at day 0 and day 14 as described in Example 5. On d21, i.e. seven days after the boost injection, the animals were euthanized and the spleen was harvested. Splenocytes were prepared by mechanical disruption of the organ. CD3+ purification was performed using the mouse total T cells isolation kit from Miltenyi biotec using the recommended procedure. […]
U87-MG cells were seeded at 6×10^5 cells/well in flat-bottomed 24-well culture plates and incubated for 24 h at 37° C. in DMEM (Dulbecco's Modified Eagle Medium) containing 10% of FCS (fetal calf serum) and antibiotics. […] 72 hours after co-culture of U87-MG cells and CD3+ T cells, all cells from the wells were harvested and specific U87-MG cell death was evaluated after immunostaining of CD45 negative cells with DAPI and fluorescent annexin V followed by cytometry analysis.

[1] = test system: unresectable or metastatic melanoma; details: patients; cited from earlier work
NSCLC = details: patients; cited from earlier work
[2] = test system: renal cell carcinoma (RCC); details: patients; cited from earlier work
[3] = ex vivo re-stimulation with IL13RA2-B pAg 10 μM
[4] = ex vivo re-stimulation with IL13RA2-H pAg 10 μM

Row | binding to HLA-A*0201 (HLA-A*0201) | concentration inducing 20% of expression of the HLA-A*0201 (HLA-A*0201) | Mean fluorescence intensity (HLA-A*0201; peptide at 0.1 μM) | Mean fluorescence intensity (HLA-A*0201; peptide at 1 μM) | Mean fluorescence intensity (HLA-A*0201; peptide at 10 μM) | Mean fluorescence intensity (HLA-A*0201; peptide at 100 μM) | Substance | binding affinity to HLA-A*0201 compared among peptides (HLA-A*0201) | percentage of ConA-induced response (mean+/−SEM) (β/A2/DR3 mice; [3]) | percentage of ConA-induced response (mean+/−SEM) (β/A2/DR3 mice; [4]) | U87 cell lysis (U87-MG cells) | also measured
1 | binds strongly | 4.4 µM | 9.9 | 12.18 | 40.77 | 112.05 | FLPFGFILV (sequence variant) [SEQ ID NO: 18] | considerably higher binding affinity to HLA-A*0201 than all other peptides tested | 56.3%+/−18.1 | 32.3%+/−11.8 | U87 cell lysis was observed | T cell responses in the ELISPOT-IFNγ assay (β/A2/DR3 mice; compared to IL13RA2-H-vaccinated animals): improved T cell responses; In vitro binding affinity (HLA-A*0201; relative affinity = concentration inducing 20% of HLA-A*0201 expression / that of reference peptide HIV pol 589-597, lower = stronger): 0.49
2 | does not bind | 100 µM | 7.46 | 9.41 | 11.61 | 18.64 | WLPFGFILI (listed as Homo sapiens) [SEQ ID NO: 1] |  | 2.0%+/−0.8 | 1.1%+/−0.8 | not | 

Second part, the substance before the results:

Row | Substance | binding to HLA-A*0201 (HLA-A*0201) | concentration inducing 20% of expression of the HLA-A*0201 (HLA-A*0201) | Mean fluorescence intensity (HLA-A*0201; peptide at 0.1 μM) | Mean fluorescence intensity (HLA-A*0201; peptide at 1 μM) | Mean fluorescence intensity (HLA-A*0201; peptide at 10 μM) | Mean fluorescence intensity (HLA-A*0201; peptide at 100 μM) | binding affinity to HLA-A*0201 compared among peptides (HLA-A*0201) | percentage of ConA-induced response (mean+/−SEM) (β/A2/DR3 mice; [3]) | percentage of ConA-induced response (mean+/−SEM) (β/A2/DR3 mice; [4]) | U87 cell lysis (U87-MG cells) | also measured
3 | 1A9V: SEQ ID NO: 1 with tryptophan at position 1 substituted by alanine and isoleucine at position 9 by valine (Eguchi et al., 2006) (ALPFGFILV; listed as Homo sapiens) |  |  |  |  |  |  | lowest affinity of the peptides tested |  |  |  | 
4 | Ipilumumab: anti-CTLA-4 antibody |  |  |  |  |  |  |  |  |  |  | three-year survival rate [1]: around 20%
5 | Nivolumab: check point inhibitor targeting PD1 |  |  |  |  |  |  |  |  |  |  | three-year survival rate (NSCLC): 18%; three-year survival rate [2]: 44%
